# From publication PMC2834734
# Target: myc tagged version of gp96 (UniProt P14625)
# Assay: pull-down; gp96-myc held on anti-myc agarose beads (Pierce c-Myc Tag IP/Co-IP kit); mixed with 10^8 DRP of purified BAAV or AAV4 vector; 4 °C for 1 h; extensive washes with TBS-T in spin columns; bound vector DNA quantified by qPCR; fold change relative to vector bound to GFP beads; n = 3
# Sequence of UniProt P14625 (P14625 22-803): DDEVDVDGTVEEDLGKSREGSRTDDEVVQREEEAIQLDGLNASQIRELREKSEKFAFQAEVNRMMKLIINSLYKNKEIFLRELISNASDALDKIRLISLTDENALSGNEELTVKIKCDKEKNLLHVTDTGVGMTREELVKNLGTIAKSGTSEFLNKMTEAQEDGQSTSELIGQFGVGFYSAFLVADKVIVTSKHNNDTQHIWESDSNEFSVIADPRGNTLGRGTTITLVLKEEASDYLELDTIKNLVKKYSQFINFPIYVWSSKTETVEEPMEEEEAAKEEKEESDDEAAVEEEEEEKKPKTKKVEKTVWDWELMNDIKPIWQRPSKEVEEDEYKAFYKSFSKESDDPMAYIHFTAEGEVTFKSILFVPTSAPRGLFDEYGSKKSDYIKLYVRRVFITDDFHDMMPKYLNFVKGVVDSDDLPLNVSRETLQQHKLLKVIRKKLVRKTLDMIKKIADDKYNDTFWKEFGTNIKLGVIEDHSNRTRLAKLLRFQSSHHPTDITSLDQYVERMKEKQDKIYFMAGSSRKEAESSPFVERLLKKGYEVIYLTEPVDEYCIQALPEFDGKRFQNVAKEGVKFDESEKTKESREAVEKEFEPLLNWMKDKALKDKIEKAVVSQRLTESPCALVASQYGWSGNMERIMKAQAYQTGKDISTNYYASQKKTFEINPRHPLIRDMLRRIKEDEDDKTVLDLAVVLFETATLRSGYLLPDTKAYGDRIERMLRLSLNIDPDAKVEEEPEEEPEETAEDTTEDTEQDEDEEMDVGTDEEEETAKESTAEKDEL
substance,measurement,value
recombinant bovine adeno-associated virus (BAAV) vector particles containing the CMV-GFP expression cassette (complex),fold increase in bound vector against control GFP or TRPC1 beads,2 to 3 fold
